Laboratory results reported in article doi:10.1101/2022.11.11.516238.

Experiments:
[1] = target: T1, LeuO (Vibrio parahaemolyticus) (UniProt Q87SS2); assay: EMSA
T1 sequence: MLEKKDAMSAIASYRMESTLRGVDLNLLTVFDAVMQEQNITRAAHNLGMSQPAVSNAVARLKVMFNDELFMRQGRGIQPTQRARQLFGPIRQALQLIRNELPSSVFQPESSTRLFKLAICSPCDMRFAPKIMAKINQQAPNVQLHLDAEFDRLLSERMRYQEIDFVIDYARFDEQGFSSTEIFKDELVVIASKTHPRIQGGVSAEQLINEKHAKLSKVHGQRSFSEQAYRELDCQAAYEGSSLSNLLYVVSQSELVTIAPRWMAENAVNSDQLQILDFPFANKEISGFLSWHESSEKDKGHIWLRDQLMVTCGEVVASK

[2] = target: T2, NhaR (Vibrio parahaemolyticus) (UniProt Q87S97); assay: EMSA
T2 sequence: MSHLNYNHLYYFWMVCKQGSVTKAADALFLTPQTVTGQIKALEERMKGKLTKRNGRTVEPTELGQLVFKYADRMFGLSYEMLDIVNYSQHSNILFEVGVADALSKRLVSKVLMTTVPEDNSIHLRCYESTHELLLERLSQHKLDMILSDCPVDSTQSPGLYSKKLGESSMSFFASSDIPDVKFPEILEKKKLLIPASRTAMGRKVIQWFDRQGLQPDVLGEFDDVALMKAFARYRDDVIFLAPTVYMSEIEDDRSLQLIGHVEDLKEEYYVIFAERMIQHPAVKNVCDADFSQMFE

## CCAAGGTGCTGATGTGATCATTTTGAAATACATATCCTTTGACGTCTAATTAAATTTCGTATTTATTATGGACATTCTTTACGGTTGAAAATCAAATAATCTGCGTTTTAATCTGGATTAATGTG (double strand) [PectA probe 1A]
[1]
  binding: binds
[2]
  binding: binds

## CCACGACGACAAAACTAACCTTAAAACGGCATGCGAAAGTGTGCCGTTTTTTTATGTAAAAAACCTTAAGTCCCCTCTTTGAAACCCCACTGCATTCTGACTCAT (double strand) [PectA probe 1C]
[1]
  binding: binds
[2]
  binding: binds
